Assay results taken from publication PMC6765261 (Proceedings of the National Academy of Sciences of the …, 2019).

Biological target: the molecule itself
Assay: cryo-EM structure

Row | Protein | binding result
1 | CCT6 subunit of yeast TRiC/CCT (natural protein) not shown | binds
2 | CCT2 subunit of yeast TRiC/CCT (natural protein, Saccharomyces cerevisiae, UniProt P39076 1-527, looked up) MSVQIFGDQVTEERAENARLSAFVGAIAVGDLVKSTLGPKGMDKLLQSASSNTCMVTNDGATILKSIPLDNPAAKVLVNISKVQDDEVGDGTTSVTVLSAELLREAEKLIDQSKIHPQTIIEGYRLASAAALDALTKAAVDNSHDKTMFREDLIHIAKTTLSSKILSQDKDHFAELATNAILRLKGSTNLEHIQIIKILGGKLSDSFLDEGFILAKKFGNNQPKRIENAKILIANTTLDTDKVKIFGTKFKVDSTAKLAQLEKAEREKMKNKIAKISKFGINTFINRQLIYDYPEQLFTDLGINSIEHADFEGVERLALVTGGEVVSTFDEPSKCKLGECDVIEEIMLGEQPFLKFSGCKAGEACTIVLRGATDQTLDEAERSLHDALSVLSQTTKETRTVLGGGCAEMVMSKAVDTEAQNIDGKKSLAVEAFARALRQLPTILADNAGFDSSELVSKLRSSIYNGISTSGLDLNNGTIADMRQLGIVESYKLKRAVVSSASEAAEVLLRVDNIIRARPRTANRQHM | binds
